One experiment concerns the target T1, RBB3-E3 (Rattus norvegicus, UniProt Q8K418, A302V/D306A/E299Q/E303D/P308H/S300T/V307M/V310I/V311F/Y298S).
T1 construct: expressed in transfected cells; host or cells: 293EBNA cells, pE3 expression vector
T1 sequence (Q8K418 1-399 Y298S/E299Q/S300T/A302V/E303D/D306A/V307M/P308H/V310I/V311F): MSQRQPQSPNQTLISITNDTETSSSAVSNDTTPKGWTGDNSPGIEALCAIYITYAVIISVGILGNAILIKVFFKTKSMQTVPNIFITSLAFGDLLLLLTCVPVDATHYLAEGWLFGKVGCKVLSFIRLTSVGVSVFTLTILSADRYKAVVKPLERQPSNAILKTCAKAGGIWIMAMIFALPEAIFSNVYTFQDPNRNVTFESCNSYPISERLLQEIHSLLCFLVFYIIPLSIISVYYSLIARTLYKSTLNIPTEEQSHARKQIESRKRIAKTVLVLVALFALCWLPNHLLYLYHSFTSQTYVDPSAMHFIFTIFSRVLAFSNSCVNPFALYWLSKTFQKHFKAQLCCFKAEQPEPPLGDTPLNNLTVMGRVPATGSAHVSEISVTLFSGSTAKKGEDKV
Kind of experiment: Radioligand binding assay with 125I-dYB. The note with it: competition with [125I]dYB. Also noted: species or system rat/human. As for the experimental part:
After removal of cell nuclei by a low speed centrifugation (1000×g) step, the cell membrane proteins were collected by centrifugation at 35,000×g for 20 minutes. The membrane protein concentration was determined by the Bradford method using BSA as standard.
After a 2 hr incubation at room temperature, the binding reaction was terminated by filtering through a GF/c filter-mate and washing the filter with binding buffer using Packard 96-well Topcount Harvester. The amount of radioligand bound to the receptor was determined by measurement of the radioactivity on the filter through liquid scintillation counting. The non-specific binding was defined as the binding in the presence of 1 uM unlabeled dYB.

Experiment [1] deals with T2, rat BRS-3 (Rattus norvegicus, UniProt Q8K418).
T2 construct: utilized to PCR amplify full-length rat BRS-3 cDNA; expressed in transfected cells; host or cells: 293EBNA cells, pE3 expression vector
T2 sequence (Q8K418 1-399): T1 sequence (Q8K418 1-399 Y298S/E299Q/S300T/A302V/E303D/D306A/V307M/P308H/V310I/V311F) with S298Y, Q299E, T300S, V302A, D303E, A306D, M307V, H308P, I310V, F311V
The experiment in a line: Calcium mobilization assay (FLIPR), transfected 293EBNA cells. The experiment is classed as cell-based. How it is done:
(§1) Wild type and mutant BRS-3 constructs were transfected by using lipofectamine reagents (Life Technologies, Rockville, Md.) into 293EBNA cells (Invitrogen, Carlsbad, Calif.) which support episomal replication of plasmid containing Epstein Bar virus OriP segment. Stable cell lines were obtained by selection with 250 ug/ml hygromycin. The cells were maintained as monolayers in Dulbecco's modified Eagle's medium (Life Technologies, Rockville, Md.) supplemented with 10% fetal bovine serum and incubated at 37° C. in a humidified 5% CO2 incubator.
The functional activity of rat BRS-3 was also studied by measuring the agonist-induced calcium mobilization response using a Fluorescence Imaging Plate Reader (Molecular Devices, Sunnyvale, Calif.). Transfected 293EBNA cells were plated onto poly-D-lysine coated 96-well plates with black wall and clear bottom (Becton Dickinson, Franklin Lakes, N.J.). After 16-48 hr culture, the cells were loaded with 4 uM Fluo-3-AM fluorescent calcium-indicator dye (Molecular Probes, Eugene, OR) in assay buffer (Hank's balanced salts solution, 10 mM HEPES, pH7.4, 0.1% bovine serum albumin, 2.5 mM probenecid).
The changes in intracellular calcium concentration, as indicated by Fluo-3 fluorescence, were immediately measured by FLIPR. Maximal changes in fluorescence over base line were used to determine agonist response.
The EC50 values were mean±S.E. calculated from dose-response curves of 3-5 repeated experiments using FLIPR assays.

Experiment [2] has as its target T2, rat BRS-3. Kind of experiment: Phosphatidylinositol hydrolysis functional assay. The class given is cell-based. Particulars: peptide at 10 uM, transfected 293EBNA cells. How it is done: as §1
The functional properties of rat BRS-3 were characterized in transfected 293EBNA cells. The transfected 293EBNA cells were plated onto poly-D-lysine coated 12-well plates and incubated in the medium containing 2 uCi/ml [^3H]myo-inositol. The cells were labeled for 48 hrs, and subsequently incubated for 30 minutes in Hank's balanced salt solution containing 10 mM HEPES, 0.1% BSA and 10 mM LiCl.
Since a natural agonist of BRS-3 has not been found, members of the bombesin-like peptide family, including GRP, NMB, bombesin and dYB, were used to stimulate the transfected cells described above, in the same buffer, for 1 hr at 37° C. The reaction was stopped by removal of medium and addition of 10 mM formic acid. The inositol monophosphate fraction was then isolated by anion chromatography as described (Berridge et al. Biochem. J. 212: 473-482 (1983), which is hereby incorporated by reference).

Another experiment has as its target RBB3-E3 (rat; human) (UniProt Q8K418). Kind of experiment: cell-based or functional assay.
The target of another experiment is RB3-AMH (rat) (UniProt Q8K418). The experiment in a line: cell-based or functional assay.
Another experiment addresses RB3-IF (rat) (UniProt Q8K418). The experiment in a line: cell-based or functional assay.
Experiment [3] concerns the target human bombesin receptor subtype-3 (human) (UniProt P32247). The experiment in a line: cell-based or functional assay.
The target of experiment [4] is rat bombesin receptor subtype-3 (rat) (UniProt Q8K418). Kind of experiment: cell-based or functional assay.
The target in a further experiment is RB3-VD (rat) (UniProt Q8K418). Kind of experiment: cell-based or functional assay.
The target in a further experiment is RB3-SQT (rat) (UniProt Q8K418). Kind of experiment: cell-based or functional assay.
The target of experiment [5] is rat bombesin receptor subtype-3 (rat) (UniProt Q8K418). Kind of experiment: summary statement in the description; assay not named.

Where a chain is given by its changes, count along the chain named. No end group written: not given here.

Sequence of human bombesin receptor subtype-3 (human) (P32247 whole entry): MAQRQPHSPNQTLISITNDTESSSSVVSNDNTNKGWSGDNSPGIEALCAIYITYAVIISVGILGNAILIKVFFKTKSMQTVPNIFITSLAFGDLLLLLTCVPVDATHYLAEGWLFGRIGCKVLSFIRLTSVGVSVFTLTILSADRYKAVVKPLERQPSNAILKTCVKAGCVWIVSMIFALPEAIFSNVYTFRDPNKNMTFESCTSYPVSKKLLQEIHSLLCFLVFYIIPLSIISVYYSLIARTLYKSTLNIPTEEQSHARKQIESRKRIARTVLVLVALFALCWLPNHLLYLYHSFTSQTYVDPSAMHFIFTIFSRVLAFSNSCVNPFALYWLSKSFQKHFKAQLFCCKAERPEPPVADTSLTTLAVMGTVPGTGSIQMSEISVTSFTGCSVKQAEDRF

For the substance phyllolitorin, the binding affinity result on RBB3-E3 was “uM low affinities”.

With “gastrin-releasing peptide (VPLPAGGGTVLTKMYPRGNHWAVGHLM; ends and bridges not checked; UniProt P07492 24-50, looked up) [GRP, bombesin-like peptide found in mammals]”, the intracellular calcium response result is given as “none of the four peptides could stimulate a significant calcium response” with rat BRS-3 [1] (concentrations below 1.0 uM) and “transient increase in intracellular calcium concentration” with rat BRS-3 [1] (peptide at 10 uM). In the experiment with rat BRS-3 [2], the “stimulation of phosphatidylinositol (PI) hydrolysis (inositol monophosphate production)” value was “significant increase”. In addition, the binding affinity result with RBB3-E3 is reported as “uM low affinities”.

In the case of “[D-Tyr6-betaAla11-Phe13-Nle14] bombesin (6-14) (peptide)”, the EC50, calcium mobilization (FLIPR) came out at 2.8 nM in the experiment with RBB3-E3 (rat; human); 370 nM with RB3-AMH (rat); 1300 nM with RB3-IF (rat); 1.2 nM in [3]; 2200 nM in [4]; 930 nM with RB3-VD (rat). Besides, the EC50, calcium mobilization (FLIPR) with RB3-SQT (rat) turned out to be 390 nM. Further, the fold improvement of dYB potency against rat BRS-3, calcium mobilization with RB3-AMH (rat) amounted to 6 fold; with RB3-SQT (rat), 5 fold. The fold difference in dYB potency between human and rodent BRS-3 in experiment [4] is 1000 fold. In [4], the phosphatidylinositol (PI) hydrolysis, inositol monophosphate production, peptide at 10 uM came to 9 fold. The fold lower affinity than human BRS-3 in experiment [5] is 1000 fold.

In the case of neuromedin B [NMB], the intracellular calcium response entry in the experiment with rat BRS-3 [1] (concentrations below 1.0 uM) is on record as “none of the four peptides could stimulate a significant calcium response”; with rat BRS-3 [1] (peptide at 10 uM), “transient increase in intracellular calcium concentration”. Further, in the experiment with rat BRS-3 [2], the “stimulation of phosphatidylinositol (PI) hydrolysis (inositol monophosphate production)” value is given as “significant increase”. For the same substance, the binding affinity result with RBB3-E3 is listed as “uM low affinities”.

The values above are taken from patent US20050222402A1, “Dna encoding rat bombesin receptor subtype-3 (brs-3) and uses thereof” (priority 2001, published 2005).
